This note sets out measurements from publication PMC12609080, “Substrate recognition by human separase” (Science Advances, 2025).

What all share (assay): fluorescence polarisation; FlAsH-EDT2-labelled SCC1 fragment as probe, inactive separase added; 25 mM Hepes (pH 8.0), 100 mM NaCl, bovine serum albumin (0.1 mg/ml), 0.01% NP-40; room temperature (25°C); One Site-Total nonlinear fit
The target of assay [1] is MBP-SCC1^100–320 with C-terminal tetracysteine motif, unphosphorylated (human) (UniProt O60216).
For assay [2], the target named is phosphorylated SCC1 site 1 (100 to 320) (human) (UniProt O60216).
For assay [3], the target named is T1, inactive apo-separase (separase^C2029S) (human, UniProt Q14674 1-2120, C2029S).
T1 construct: human separase (2120 amino acids), amino acids 1 to 2120, catalytic cysteine replaced with serine; Gene-optimised synthetic cDNA in the pF1 vector; also called apo-separase^C2029S; source: Sf9 (baculovirus), purified (Strep-Tactin, heparin, Superose 6)
The conditions noted are these: both partners purified.

Chain of phosphorylated SCC1 site 1 (100 to 320) (human) (O60216 100-320): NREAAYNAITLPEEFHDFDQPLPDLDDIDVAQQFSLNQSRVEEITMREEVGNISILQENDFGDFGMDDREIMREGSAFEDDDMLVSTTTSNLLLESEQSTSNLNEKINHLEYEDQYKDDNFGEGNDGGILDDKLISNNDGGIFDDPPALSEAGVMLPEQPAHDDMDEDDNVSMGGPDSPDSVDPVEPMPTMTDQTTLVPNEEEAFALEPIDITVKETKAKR
Chain of MBP-SCC1^100–320 with C-terminal tetracysteine motif, unphosphorylated (human) (O60216 100-320): as above
T1 sequence (Q14674 whole entry C2029S, the tested form may be a part): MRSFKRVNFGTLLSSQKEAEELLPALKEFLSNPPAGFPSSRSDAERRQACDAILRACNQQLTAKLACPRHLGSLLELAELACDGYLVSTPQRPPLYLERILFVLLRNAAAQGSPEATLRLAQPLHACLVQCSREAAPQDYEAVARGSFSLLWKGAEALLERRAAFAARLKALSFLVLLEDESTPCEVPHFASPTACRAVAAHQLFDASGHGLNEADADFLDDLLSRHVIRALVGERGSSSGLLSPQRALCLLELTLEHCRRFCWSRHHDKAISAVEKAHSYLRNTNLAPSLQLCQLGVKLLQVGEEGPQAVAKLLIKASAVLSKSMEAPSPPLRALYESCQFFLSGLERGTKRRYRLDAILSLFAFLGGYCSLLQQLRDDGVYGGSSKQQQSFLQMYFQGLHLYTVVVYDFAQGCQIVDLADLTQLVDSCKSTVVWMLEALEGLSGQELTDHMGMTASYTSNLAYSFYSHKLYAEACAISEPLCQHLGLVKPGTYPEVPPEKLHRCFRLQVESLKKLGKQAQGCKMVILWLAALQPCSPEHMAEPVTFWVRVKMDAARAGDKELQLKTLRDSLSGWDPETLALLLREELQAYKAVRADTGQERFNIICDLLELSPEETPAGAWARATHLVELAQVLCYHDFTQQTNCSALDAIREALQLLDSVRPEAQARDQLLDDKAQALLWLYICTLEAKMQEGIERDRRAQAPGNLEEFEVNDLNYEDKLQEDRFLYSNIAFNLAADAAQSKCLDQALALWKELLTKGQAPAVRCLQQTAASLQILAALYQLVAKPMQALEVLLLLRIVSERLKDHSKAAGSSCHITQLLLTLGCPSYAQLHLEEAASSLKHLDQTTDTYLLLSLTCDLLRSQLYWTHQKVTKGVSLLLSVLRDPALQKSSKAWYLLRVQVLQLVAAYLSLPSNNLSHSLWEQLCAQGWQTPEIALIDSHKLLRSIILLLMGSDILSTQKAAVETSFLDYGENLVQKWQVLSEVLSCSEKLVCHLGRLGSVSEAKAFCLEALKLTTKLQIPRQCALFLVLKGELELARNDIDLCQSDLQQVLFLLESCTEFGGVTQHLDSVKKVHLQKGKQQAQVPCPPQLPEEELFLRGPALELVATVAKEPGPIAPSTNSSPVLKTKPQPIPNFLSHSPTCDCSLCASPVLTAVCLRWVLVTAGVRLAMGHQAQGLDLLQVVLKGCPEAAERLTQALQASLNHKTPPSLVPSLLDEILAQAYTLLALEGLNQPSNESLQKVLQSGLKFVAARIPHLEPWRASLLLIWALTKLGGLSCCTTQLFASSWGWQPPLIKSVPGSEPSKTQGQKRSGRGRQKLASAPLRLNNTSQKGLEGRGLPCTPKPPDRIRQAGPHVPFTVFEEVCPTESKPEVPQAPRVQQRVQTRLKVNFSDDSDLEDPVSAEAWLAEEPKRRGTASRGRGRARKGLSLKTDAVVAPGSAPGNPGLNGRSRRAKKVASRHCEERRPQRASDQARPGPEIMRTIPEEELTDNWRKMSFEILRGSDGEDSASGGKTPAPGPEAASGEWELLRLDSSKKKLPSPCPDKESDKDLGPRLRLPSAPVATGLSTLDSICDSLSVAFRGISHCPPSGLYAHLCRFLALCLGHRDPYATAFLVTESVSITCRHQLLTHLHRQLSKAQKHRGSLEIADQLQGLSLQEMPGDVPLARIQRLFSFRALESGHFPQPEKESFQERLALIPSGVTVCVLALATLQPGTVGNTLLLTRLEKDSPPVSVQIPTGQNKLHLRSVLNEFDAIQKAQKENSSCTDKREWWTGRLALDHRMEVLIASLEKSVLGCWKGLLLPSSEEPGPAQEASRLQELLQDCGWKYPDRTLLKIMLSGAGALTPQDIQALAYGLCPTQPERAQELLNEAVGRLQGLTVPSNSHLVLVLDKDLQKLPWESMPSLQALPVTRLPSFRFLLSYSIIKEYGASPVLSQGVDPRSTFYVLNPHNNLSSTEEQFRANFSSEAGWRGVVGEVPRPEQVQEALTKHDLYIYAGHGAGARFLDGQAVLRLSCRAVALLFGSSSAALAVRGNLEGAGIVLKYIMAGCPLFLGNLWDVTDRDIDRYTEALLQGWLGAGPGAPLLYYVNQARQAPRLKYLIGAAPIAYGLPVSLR

“inactive apo-separase (separase^C2029S), Q14674 1-2120” came in with a fold lower Kd than the SCC1 350-550 construct in assay [1] of 3 fold. The same molecule showed a fold lower Kd than unphosphorylated SCC1 100-320 in assay [2] of 2 fold.

B1: MBP-SCC1^350–550 with C-terminal tetracysteine motif, unphosphorylated (domain or fragment, human, UniProt O60216 350-550, looked up)
chain: TLDLAPPTKKLMMWKETGGVEKLFSLPAQPLWNNRLLKLFTRCLTPLVPEDLRKRRKGGEADNLDEFLKEFENPEVPREDQQQQHQQRDVIDEPIIEEPSRLQESVMEASRTNIDESAMPPPPPQGVKRKAGQIDPEPVMPPQQVEQMEIPPVELPPEEPPNICQLIPELELLPEKEKEKEKEKEDDEEEEDEDASGGDQD
modifications: FlAsH-EDT2 fluorescent dye on the C-terminal tetracysteine motif
notes: human SCC1/RAD21, amino acids 350 to 550 (holds cleavage site 2, R427); pETM41 vector; also called SCC1 site 2 (amino acids 350 to 550); source: E. coli BL21, purified (HiTrap MBP, Superdex 200); not shown: 6xHis-MBP, N-terminal, kept
Take B1: the binding result in assay [3] is “binds”.
